Test results taken from publication PMC7205571 (Structure (London, England : 1993), 2020).
Values belong to the binder of their own block, whether it stands above or below them.

Assays:
monoubiquitin = monoubiquitin (UniProt P0CG48 1-76); test: NMR 13C-half-filtered NOESY
hRpn13 Pru (1–150) = hRpn13 Pru (1–150) (human, UniProt Q16186 1-150, 13C-labelled); test: NMR structure

B1: hRpn2-bound hRpn13 (hRpn13 Pru:hRpn2 (940–953) complex) (complex, human)
chain 1: MTTSGALFPSLVPGSRGASNKYLVEFRAGKMSLKGTTVTPDKRKGLVYIQQTDDSLIHFCWKDRTSGNVEDDLIIFPDDCEFKRVPQCPSGRVYVLKFKAGSKRLFFWMQEPKTDQDEEHCRKVNEYLNNPPMPGALGASGSSGHELSAL
chain 2: QEPEPPEPFEYIDD
modifications: 13C-labelled
binding result (monoubiquitin): binds

binding result (hRpn13 Pru (1–150)): binds
Binder: QEPEPPEPFEYIDD (peptide, UniProt Q99460 940-953, looked up) [hRpn2 (940–953)]
